Results reported in US20090246142A1 (published 2009).
Square brackets hold non-standard residues; d marks the D form. pY = N[C@@H](Cc1ccc(OP(=O)(O)O)cc1)C(=O)O; Ahx = NCCCCCC(=O)O

Experiments:
[1] = biological target: T1, Crk SH2 domain with an N-terminal cysteine (cys-SH2), conjugated to iron oxide nanoparticles (SH2 TSACs) (UniProt P46108 13-118, limits assumed, N-terminal cysteine added by genetic modification and conjugated to aminated nanoparticles through NHS-PEO12-maleimide); assay: DLS of nanoparticle assembly
T1 construct: domain: SH2 domain; also called cysteine-SH2; Crk-SH2 TSACs

[2] = biological target: T1, Crk SH2 domain with an N-terminal …; assay: DLS of nanoparticle assembly in the presence of Abl kinase

T1 sequence (P46108 13-118 limits assumed): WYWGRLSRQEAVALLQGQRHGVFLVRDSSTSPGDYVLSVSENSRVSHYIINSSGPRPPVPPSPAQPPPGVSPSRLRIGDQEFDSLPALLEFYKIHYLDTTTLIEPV

Binder	binding result [1]	binding result [2]
{TAMRA-Ahx}-EAI[pY]AAPFAKKKC-NH2 (not fully specified (residue 13); also: Cys conjugated to nanoparticle via NHS-PEO12-maleimide) [TAMRA-(Ahx)EAIpYAAPFAKKKC-CONH2 (non-binding Abl substrate, phosphorylated) on nanoparticles]	no binding (tested: 10 µg Fe/ml (12 nM TSAC concentration))	–
{TAMRA-Ahx}-SRVGEEEHVFSFPNKQKSAEC-NH2 (not fully specified (residue 21); printed as TAMRA-(Ahx)SRVGEEEHVFSFPNKQKSAEC-CONH2; also: Cys conjugated to nanoparticle via NHS-PEO12-maleimide, also called phenylalanine-Abl substrate TSACs; phenylalanine substrate TSACs)	–	no binding (tested: 10 µg Fe/ml (12 nM TSAC concentration))
